Assay results reported in PMC2443653.

Target: rPrP23-231 (full-length mature recombinant prion protein) (mouse, UniProt P04925 23-231)
Assay: fluorescence anisotropy

Sequence of rPrP23-231 (full-length mature recombinant prion protein) (P04925 23-231): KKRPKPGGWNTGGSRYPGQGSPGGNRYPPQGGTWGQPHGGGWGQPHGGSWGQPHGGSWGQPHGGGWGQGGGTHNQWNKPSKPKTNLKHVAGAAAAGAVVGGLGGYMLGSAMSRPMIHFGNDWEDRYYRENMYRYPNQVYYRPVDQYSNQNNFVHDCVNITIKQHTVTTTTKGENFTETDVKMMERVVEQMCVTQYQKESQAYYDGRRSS

B1: opRNA (structured_RNA)
RNA: AAACAUGGGUUCCCAUGU
- binding result: binds
